Measurements: publication PMC9040152

Key:
[1] = target: E5-tagged FcγRIIIa V158, produced in CHO cells (human); test: SPR
[2] = target: E5-tagged Fcγ receptor IIIa, V158 variant (human); test: SPR
Chain of E5-tagged Fcγ receptor IIIa, V158 variant (human) (P08637 17-208, change not shown): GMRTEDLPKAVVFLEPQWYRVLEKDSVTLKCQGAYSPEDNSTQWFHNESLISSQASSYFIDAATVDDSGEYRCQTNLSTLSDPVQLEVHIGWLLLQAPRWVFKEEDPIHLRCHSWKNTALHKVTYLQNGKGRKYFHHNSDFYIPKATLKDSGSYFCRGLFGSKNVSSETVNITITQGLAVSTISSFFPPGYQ

Chain of E5-tagged FcγRIIIa V158, produced in CHO cells (human) (P08637 17-208): as the sequence (P08637 17-208, change not shown) above

Row | Kd [1] | fold increase in affinity upon digalactosylation, relative to TZM [2] | Substance
1 | 32 nM |  | Trastuzumab co-expressed with β4GT1 and RMD, in vitro α2,6-sialylated (antibody)
2 |  | 2 fold | Trastuzumab co-expressed with β1,4-galactosyltransferase 1 (TZM GT) (antibody)
